Assays:
[1] = Soluble expression in Escherichia coli BL21(DE3); format: physicochemical; conditions: expression in E. coli BL21(DE3)
Procedure: Variants with affinity tag were expressed in Escherichia coli BL21(DE3) using a low copy plasmid system under regulation of a T7 promoter. Proteins were produced in soluble form after induction by lactose included in the medium (autoinduction medium). BL21 (DE3) competent cells were transformed with the expression plasmid, spread onto selective agar plates (kanamycin) and incubated overnight at 37° C. Precultures were inoculated from single colony in 3 ml 2×YT medium supplemented with 50 μg/ml kanamycin and cultured for 6 hours at 37° C. at 200 rpm in a conventional orbital shaker in culture tubes. […] Cultures were transferred to an orbital shaker and incubated at 30° C. and 200 rpm. Recombinant protein expression was induced by metabolizing glucose and subsequently allowing lactose to enter the cells. Cells were grown overnight for approx. 17 hours to reach a final OD600 of about 2-4. Before the harvest, the OD600 was measured, samples adjusted to 0.6/OD600 were withdrawn, pelleted and frozen at −20° C. To collect biomass cells were centrifuged at 12000×g for 15 min at 22° C. Pellets were weighed (wet weight). Cells were stored at −20° C. before processing.
(§1) Proteins with affinity tag were purified by affinity chromatography and size exclusion. After affinity chromatography purification using Strep-Tactin Superflow high capacity cartridges (IBA Lifesciences) a size exclusion chromatography (SEC) was performed using an Äkta system and a Superdex™ 200 HiLoad 16/600 column (Cytiva). Fused variants with Aflibercept were purified via MabSelect SuRe (Cytiva) affinity chromatography followed by a size exclusion chromatography (SEC) using an Äkta system and a Superdex™ 200 HiLoad 16/600 column (Cytiva). All chromatography processing steps were carried out on AKTA systems using matrices from Cytiva. Homogenous species of all purified ligands were obtained; no aggregation was detected. Following SOS-PAGE analysis positive fractions were pooled and their protein concentrations were measured. Further analysis included SOS-PAGE, SE-HPLC and RP-HPLC. Protein concentrations were determined by absorbance measurement at 280 nm using the molar absorbent coefficient. Reversed phase chromatography (RP-HPLC) was performed using a Dionex HPLC system and a PLRP-S (5 μm, 300 Å) column (Agilent). Analytic size exclusion chromatography (SE-HPLC) was performed using a Dionex HPLC system and a Superdex200 increase 5/150 GL (Cytiva). Binding of Collagen II was evaluated by SPR measurements using a Biacore 3000 system. Purified Collagen II was obtained from Chondrex.inc and VEGF-165 was obtained from Millipore. Targets were immobilized on a CM5-Sensor via NHS/EDC chemistry (immobilization level ˜1000 RU). Binding molecules were injected at different concentration and affinity was calculated by langmuir 1:1 binding model.

Type III collagen = target: T1, Type III collagen (Homo sapiens, UniProt P02461); assay: SPR specificity vs Type III collagen; format: binding
T1 sequence (P02461 154-1221 limits assumed): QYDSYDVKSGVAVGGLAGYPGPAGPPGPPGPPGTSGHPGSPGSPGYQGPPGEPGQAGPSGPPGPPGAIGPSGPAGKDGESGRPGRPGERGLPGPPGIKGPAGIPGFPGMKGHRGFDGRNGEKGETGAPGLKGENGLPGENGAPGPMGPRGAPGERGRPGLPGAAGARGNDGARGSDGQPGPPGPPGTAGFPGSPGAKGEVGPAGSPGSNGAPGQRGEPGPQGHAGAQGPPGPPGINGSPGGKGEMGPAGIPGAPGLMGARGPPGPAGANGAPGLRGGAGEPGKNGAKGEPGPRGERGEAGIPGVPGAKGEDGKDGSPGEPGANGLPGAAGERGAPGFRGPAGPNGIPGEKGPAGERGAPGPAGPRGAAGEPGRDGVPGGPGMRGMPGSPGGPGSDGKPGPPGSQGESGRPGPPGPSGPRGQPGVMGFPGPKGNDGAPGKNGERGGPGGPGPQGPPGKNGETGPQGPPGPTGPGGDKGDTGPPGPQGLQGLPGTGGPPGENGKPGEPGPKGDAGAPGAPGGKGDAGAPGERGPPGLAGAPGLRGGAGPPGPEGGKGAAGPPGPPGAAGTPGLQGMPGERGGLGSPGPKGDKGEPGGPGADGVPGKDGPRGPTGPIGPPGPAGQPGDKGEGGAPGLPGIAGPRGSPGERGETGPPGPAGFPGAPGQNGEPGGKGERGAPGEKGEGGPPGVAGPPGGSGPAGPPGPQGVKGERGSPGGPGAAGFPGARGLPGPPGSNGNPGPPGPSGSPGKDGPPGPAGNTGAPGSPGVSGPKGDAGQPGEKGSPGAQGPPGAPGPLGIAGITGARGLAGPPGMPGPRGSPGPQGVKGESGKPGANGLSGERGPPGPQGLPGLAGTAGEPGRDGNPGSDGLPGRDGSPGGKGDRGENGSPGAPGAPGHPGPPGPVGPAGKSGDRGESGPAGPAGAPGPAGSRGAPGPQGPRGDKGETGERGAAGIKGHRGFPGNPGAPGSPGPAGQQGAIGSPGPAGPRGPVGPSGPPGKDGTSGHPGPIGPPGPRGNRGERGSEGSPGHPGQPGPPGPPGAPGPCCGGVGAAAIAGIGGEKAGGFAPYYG
Procedure: (§2) The purified proteins were immobilized on a CM-5 sensor chip (GE Healthcare) using NHS/EDC after PDEA activation resulting in 110-140 RU with a Biacore 3000 system (GE Healthcare). The chip was equilibrated with SPR running buffer (PBS 0.05% Tween pH 7.3). Upon binding, target analyte was accumulated on the surface increasing the refractive index. This change in the refractive index was measured in real time and plotted as response or resonance units versus time. The analytes were applied to the chip in serial dilutions with a flow rate of 30 μl/min. The association was performed for 120 seconds and the dissociation for 120 seconds. After each run, the chip surface was regenerated with 30 μl regeneration buffer (10 mM glycine pH 2.0) and equilibrated with running buffer.
(§3) Binding studies were carried out by the use of the BIAcore 3000 (GE Healthcare); data evaluation was operated via the BIAevaluation 3.0 software, provided by the manufacturer, using the Langmuir 1:1 model (RI=0). Evaluated dissociation constants (KD) were standardized against the immobilized protein and indicated. Shown is the change in refractive index measured in real time and plotted as response or resonance unit [RU] versus time [sec].

[2] = target: T2, recombinant human collagen type II (h Col II) (Homo sapiens, UniProt P02458); assay: KD-determination by ELISA vs human collagen type II; format: binding
T2 construct: purchased Chondrex CHX-20051
T2 sequence (P02458 182-1241): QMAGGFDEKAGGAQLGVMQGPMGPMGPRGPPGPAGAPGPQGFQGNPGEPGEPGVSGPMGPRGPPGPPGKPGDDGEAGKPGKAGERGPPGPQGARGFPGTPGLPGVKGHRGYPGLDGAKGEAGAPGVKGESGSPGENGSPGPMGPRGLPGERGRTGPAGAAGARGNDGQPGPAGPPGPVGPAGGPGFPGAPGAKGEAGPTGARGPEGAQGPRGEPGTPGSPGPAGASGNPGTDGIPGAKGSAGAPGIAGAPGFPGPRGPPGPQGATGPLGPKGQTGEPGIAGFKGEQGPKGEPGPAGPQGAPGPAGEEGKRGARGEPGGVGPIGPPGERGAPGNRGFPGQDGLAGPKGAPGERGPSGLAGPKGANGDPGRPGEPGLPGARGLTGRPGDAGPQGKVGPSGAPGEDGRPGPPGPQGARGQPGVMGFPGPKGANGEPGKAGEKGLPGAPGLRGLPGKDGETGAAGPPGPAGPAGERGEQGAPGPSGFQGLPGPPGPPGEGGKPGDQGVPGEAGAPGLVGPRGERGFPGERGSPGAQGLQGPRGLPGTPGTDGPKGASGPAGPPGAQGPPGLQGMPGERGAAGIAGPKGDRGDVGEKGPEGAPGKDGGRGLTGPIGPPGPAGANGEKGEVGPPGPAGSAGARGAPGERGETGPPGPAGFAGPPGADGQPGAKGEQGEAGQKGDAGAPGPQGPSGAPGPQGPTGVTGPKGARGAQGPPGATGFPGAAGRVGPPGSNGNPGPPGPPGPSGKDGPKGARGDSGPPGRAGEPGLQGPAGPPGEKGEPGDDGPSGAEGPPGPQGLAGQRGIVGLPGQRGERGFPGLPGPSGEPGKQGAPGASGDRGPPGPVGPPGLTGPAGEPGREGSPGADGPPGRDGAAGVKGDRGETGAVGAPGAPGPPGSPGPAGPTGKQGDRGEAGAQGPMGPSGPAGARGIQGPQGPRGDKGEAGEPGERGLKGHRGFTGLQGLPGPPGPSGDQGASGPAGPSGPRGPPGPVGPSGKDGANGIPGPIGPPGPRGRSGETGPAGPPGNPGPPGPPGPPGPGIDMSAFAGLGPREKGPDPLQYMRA
Procedure: (§4) High binding plates (Greiner, 781061) were immobilized with 2.5 μg/ml recombinant human collagen type II (h Col II, Chondrex, CHX-20051), rabbit collagen type II (rbCol II, prepared from rabbit eyes), porcine collagen type II (p Col II, prepared from porcine eyes), human collagen type I, (h Col I, Sigma, C5483-1MG), human collagen type V (h Col V, Abcam, ab7537), human collagen type III (h Col Ill, Abcam, ab7535) and 67B89 (domain of fibronectin, produced in E. coli) respectively over night at 4° C. ELISA-plates were washed 3 times with PBST (PBS+ 0.1% Tween) and blocked with 3% BSA/0.5% Tween/PBS 2 h at RT. After washing with PBST, dilution series of 1.1 μM to 7×10^−4 nM of dimers (CID 211999, CID 212000), dilution series of 100 nM to 7×10^−6 nM of tetramers (CID 212001 and CID 212704) and dilution series of 10 μM to 2 nM of dimer (CID 212705) were incubated on ELISA-plates 1 h at rt. Plates were washed with PBST and incubated with biotinylated anti-StrepTag-ab (Antikörper-online, ABIN1573895) with a dilution of 1:10.000 for 1 h at rt. The binding was visualized with a-rabbit-IgG-HRP (Sigma, A9169) with a dilution of 1:10.000 and as substrate TMB Plus von KEM EN TEC Diagnostic, Kat-Nr. 4395.

Type V collagen = Type V collagen (Homo sapiens, UniProt P05997+P20908); assay: SPR specificity vs Type V collagen; format: binding
Procedure: as §2, §3

[3] = target: T3, hCol2 (human Type II collagen) (Homo sapiens, UniProt P02458); assay: Binding analysis by SPR (Biacore 3000) vs human type II collagen
T3 construct: purchased Chondrex
T3 sequence (P02458 182-1241): as above
Procedure: as §1, §2, §3

Type I collagen = Type I collagen (Homo sapiens, UniProt P02452+P08123); assay: SPR specificity vs Type I collagen; format: binding
Sequence of Type I collagen (P02452 162-1218 limits assumed): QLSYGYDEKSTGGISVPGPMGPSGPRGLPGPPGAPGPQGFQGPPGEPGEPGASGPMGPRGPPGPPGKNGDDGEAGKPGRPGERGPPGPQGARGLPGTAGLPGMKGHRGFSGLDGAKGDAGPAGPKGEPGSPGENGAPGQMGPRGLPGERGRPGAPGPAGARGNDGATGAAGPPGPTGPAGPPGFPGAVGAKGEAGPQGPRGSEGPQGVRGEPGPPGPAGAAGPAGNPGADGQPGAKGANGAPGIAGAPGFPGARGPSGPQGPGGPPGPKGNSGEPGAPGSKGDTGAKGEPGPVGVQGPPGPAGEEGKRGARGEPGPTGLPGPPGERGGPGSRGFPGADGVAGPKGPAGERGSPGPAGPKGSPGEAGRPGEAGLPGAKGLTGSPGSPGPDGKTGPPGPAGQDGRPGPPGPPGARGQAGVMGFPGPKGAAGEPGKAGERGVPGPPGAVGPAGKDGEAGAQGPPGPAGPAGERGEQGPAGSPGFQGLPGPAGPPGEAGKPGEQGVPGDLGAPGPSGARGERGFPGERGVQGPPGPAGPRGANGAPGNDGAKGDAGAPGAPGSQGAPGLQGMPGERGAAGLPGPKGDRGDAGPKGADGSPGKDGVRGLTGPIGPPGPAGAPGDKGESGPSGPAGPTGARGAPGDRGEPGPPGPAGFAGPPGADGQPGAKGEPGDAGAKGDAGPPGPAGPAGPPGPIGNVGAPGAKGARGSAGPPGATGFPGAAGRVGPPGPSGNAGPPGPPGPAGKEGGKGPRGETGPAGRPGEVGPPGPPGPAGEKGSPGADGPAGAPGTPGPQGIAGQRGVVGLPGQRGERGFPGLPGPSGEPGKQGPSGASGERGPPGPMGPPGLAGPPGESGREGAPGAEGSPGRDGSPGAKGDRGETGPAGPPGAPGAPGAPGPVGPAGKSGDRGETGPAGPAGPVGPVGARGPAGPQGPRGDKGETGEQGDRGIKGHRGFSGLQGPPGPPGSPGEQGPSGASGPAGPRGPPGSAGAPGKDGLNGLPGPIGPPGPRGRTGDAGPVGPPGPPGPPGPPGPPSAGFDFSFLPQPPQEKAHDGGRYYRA
Sequence of Type I collagen (P08123 80-1119 limits assumed): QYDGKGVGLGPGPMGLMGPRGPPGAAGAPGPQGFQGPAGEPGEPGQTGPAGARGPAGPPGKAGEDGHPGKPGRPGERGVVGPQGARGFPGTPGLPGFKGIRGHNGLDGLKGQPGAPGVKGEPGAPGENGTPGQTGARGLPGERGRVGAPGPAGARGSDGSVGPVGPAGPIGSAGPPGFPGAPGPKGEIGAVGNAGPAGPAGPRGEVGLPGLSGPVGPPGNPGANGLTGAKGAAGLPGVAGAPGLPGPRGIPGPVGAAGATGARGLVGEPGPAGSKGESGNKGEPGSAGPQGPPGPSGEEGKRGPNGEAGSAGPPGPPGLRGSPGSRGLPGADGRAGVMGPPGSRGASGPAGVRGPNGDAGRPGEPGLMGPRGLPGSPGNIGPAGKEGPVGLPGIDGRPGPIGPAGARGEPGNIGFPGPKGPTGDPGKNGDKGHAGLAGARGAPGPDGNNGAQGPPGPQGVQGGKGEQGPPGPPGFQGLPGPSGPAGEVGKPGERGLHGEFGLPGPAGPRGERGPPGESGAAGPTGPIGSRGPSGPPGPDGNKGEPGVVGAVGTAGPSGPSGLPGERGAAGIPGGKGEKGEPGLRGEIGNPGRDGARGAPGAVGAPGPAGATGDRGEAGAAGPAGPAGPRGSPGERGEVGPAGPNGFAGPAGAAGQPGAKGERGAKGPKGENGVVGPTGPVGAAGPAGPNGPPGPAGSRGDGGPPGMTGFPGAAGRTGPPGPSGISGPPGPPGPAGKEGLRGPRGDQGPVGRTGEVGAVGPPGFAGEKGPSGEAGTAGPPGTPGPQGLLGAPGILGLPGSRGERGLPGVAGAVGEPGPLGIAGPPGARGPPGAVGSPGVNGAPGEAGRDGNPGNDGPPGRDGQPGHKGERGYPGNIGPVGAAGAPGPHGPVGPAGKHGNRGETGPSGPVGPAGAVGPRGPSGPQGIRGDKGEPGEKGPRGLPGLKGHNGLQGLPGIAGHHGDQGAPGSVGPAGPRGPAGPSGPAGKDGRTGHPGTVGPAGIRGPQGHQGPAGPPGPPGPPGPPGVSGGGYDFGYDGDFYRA
Procedure: as §2, §3

[4] = target: T4, porcine collagen type II (p Col II) (Sus scrofa, UniProt A0A287A2Q7); assay: KD-determination by ELISA vs porcine collagen type II; format: binding
T4 construct: porcine collagen type II (p Col II, prepared from porcine eyes); from tissue; host or cells: porcine eyes
T4 sequence (A0A287A2Q7 26-1486): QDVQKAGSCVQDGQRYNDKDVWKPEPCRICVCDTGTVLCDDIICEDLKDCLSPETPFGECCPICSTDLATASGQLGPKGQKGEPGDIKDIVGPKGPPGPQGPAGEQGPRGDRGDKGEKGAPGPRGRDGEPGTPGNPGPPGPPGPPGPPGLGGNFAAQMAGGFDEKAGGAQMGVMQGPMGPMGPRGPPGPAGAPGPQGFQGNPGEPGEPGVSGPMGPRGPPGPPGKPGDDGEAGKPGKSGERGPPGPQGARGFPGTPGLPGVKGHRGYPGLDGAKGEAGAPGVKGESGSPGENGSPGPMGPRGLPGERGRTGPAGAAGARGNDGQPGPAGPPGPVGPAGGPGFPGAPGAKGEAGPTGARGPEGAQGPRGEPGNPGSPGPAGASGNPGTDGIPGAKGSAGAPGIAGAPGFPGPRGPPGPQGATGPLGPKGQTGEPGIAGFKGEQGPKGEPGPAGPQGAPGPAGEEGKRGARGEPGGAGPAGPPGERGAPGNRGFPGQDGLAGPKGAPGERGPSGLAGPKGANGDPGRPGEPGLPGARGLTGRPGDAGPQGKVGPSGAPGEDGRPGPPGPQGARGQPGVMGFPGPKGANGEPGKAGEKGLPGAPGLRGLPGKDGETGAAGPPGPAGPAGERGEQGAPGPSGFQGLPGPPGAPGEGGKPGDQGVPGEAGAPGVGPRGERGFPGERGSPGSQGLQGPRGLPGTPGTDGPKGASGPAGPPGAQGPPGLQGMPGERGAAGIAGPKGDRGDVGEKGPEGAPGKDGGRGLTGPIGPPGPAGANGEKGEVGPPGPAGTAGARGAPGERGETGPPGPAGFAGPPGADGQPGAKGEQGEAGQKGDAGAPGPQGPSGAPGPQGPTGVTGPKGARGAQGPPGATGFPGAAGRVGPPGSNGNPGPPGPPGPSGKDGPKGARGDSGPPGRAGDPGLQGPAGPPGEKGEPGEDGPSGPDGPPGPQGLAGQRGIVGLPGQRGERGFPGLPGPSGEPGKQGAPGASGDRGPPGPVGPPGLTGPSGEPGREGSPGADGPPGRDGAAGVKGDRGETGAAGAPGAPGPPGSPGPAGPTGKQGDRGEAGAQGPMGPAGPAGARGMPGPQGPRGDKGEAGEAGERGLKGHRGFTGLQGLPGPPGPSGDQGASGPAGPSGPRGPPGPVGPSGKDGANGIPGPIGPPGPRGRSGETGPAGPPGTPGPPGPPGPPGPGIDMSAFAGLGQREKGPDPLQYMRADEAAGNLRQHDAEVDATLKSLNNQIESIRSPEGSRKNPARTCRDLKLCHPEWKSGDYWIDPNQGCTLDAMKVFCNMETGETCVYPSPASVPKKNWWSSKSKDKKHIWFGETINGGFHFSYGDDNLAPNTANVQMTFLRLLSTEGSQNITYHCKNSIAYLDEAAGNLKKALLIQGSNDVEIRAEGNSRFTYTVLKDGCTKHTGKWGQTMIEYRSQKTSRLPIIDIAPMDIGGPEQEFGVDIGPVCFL
Procedure: as §4

B1: CID 211519: homodimer of SEQ ID NO: 11 (protein)
chain: IAAKFDEAQQAAFYEILHLPNLTEQQRNYFIQWLRDDPSVSPTVLGTAQQLNDSQAPKIAAKFDEAQQAAFYEILHLPNLTEQQRNYFIQWLRDDPSVSPTVLGTAQQLNDSQAPK
modifications: Col2 binding protein (dimer) 211519
With B1 the “Solubility Soluble expression” value [1] was 95%, the “Binding to Type III collagen (SPR)” value (Type III collagen) was “no binding” and the “binding affinity (KD) to human type II collagen (ELISA)” value [2] was 0.7 µM. The “Binding to Type V collagen (SPR)” value (Type V collagen) was “no binding”, the “Binding to type II collagen via SPR” value ([3]; FIG. 3, FIG. 4A) was “binding to Type II collagen with transient binding signal” and the “Affinity [SPR] vs hCol2” value ([3]; dimers or tetramers, Langmuir 1:1 model) was 784 nM. For the same molecule, the Kd ([3]; multi-cycle Biacore measurement, FIG. 4B, read-out: KD for Type II collagen, equilibrium fit of amplitudes) was 780 nM, the “Binding to Type I collagen (SPR)” value (Type I collagen) was “no binding” and the “specific binding vs porcine type II collagen (ELISA)” value [4] was 0.7 µM.

From US20230416345A1, “NEW TYPE II COLLAGEN BINDING PROTEINS” (Navigo Proteins GmbH, priority 2020, published 2023)
